# T1: secreted, soluble Kex2 (Saccharomyces cerevisiae, UniProt P13134 114-613, limits assumed)
# T1 construct: Secreted, soluble construct; also called kexin
# T1 sequence (looked up): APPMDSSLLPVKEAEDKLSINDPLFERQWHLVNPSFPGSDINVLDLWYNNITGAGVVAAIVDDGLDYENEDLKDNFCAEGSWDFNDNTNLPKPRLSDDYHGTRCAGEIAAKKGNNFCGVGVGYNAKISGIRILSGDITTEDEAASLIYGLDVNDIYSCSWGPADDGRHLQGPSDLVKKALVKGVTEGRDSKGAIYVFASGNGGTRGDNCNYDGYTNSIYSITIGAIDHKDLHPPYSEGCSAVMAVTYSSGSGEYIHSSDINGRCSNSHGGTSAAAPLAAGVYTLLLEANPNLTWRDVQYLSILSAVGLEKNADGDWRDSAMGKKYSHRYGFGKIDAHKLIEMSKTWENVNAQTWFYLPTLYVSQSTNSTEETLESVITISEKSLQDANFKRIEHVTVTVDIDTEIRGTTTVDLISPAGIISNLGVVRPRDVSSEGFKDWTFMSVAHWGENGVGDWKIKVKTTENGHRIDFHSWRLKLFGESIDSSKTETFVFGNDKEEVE
# T2: human PC7 (human, UniProt Q16549 142-667, limits assumed)
# T2 sequence (looked up): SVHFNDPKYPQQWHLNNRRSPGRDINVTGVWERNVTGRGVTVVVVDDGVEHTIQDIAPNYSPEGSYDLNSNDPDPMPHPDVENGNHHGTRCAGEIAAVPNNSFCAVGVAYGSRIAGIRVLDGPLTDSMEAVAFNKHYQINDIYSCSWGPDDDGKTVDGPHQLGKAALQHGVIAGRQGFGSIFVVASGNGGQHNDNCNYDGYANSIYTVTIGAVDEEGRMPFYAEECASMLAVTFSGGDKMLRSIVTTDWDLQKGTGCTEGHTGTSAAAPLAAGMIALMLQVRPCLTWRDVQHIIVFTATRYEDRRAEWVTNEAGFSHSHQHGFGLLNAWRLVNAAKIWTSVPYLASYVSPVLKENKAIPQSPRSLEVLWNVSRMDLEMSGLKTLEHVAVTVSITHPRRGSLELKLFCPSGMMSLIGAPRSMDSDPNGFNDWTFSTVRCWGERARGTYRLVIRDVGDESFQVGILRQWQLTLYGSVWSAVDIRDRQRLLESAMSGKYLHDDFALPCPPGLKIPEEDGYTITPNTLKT
# Assays:
# secreted, soluble furin [1] = target: T3, secreted, soluble furin (human, UniProt P09958 108-715, limits assumed); assay: enzyme inhibition, purified variant
# T3 construct: Secreted, soluble construct; also called human furin
# secreted, soluble Kex2 [2] = target: T1, secreted, soluble Kex2; assay: enzyme inhibition, purified variant
# secreted, soluble furin [3] = target: T3, secreted, soluble furin; assay: equilibrium enzyme inhibition, fluorogenic substrate
# secreted, soluble Kex2 [4] = target: T1, secreted, soluble Kex2; assay: as above
# secreted, soluble furin [5] = target: T3, secreted, soluble furin; assay: enzyme inhibition, purified variant; Kassoc
# secreted, soluble Kex2 [6] = target: T1, secreted, soluble Kex2; assay: enzyme inhibition, purified variant; Kassoc
# human PC7 [7] = target: T2, human PC7; assay: enzyme inhibition, purified variant; Kassoc
# secreted, soluble furin [8] = target: T3, secreted, soluble furin; assay: cell-based or functional assay
# secreted, soluble Kex2 [9] = target: T1, secreted, soluble Kex2; assay: cell-based or functional assay
# human PC7 [10] = target: T2, human PC7; assay: cell-based or functional assay
# secreted, soluble furin [11] = target: T3, secreted, soluble furin; assay: estimated from koff
# Experimental: (§1) In some aspects of the present invention, biological application of the eglin c variants of the present invention as inhibitors of processing in vivo depends upon the rate of binding to target enzymes, where it is critical. Therefore, the rate of action of eglin variants with Kex2 and furin was examined by incubating 5×10⁻¹⁰ M enzyme with inhibitor at molar ratios of inhibitor to enzyme ranging from 10 to 80. […] The relationship between kobs and inhibitor concentration was linear. The values of kₒₙ were determined from the slope of such curves, and dissociation rate constants (koff) were calculated (koff=kₒₙ/Kₐ). For R4R1-eglin, koff was calculated to be 2×10⁻⁴s⁻¹ for Kex2, and 3×10⁻⁴s⁻¹ for furin. […] Similarly, the t_{1/2} of the complex of M4R1-eglin with Kex2 was estimated to be 3 h. For complex of R4K1-eglin with furin, koff was calculated to be 2×10⁻⁴s⁻¹ implying that the koff and t_{1/2} for this complex are similar to those for the complex of R4R1-eglin with furin.
# secreted, soluble Kex2 [12] = target: T1, secreted, soluble Kex2; assay: estimated from koff
# Experimental: as §1
# secreted, soluble furin [13] = target: T3, secreted, soluble furin; assay: calculated from kon (progress curves) and Ka
# Experimental: as §1
# secreted, soluble Kex2 [14] = target: T1, secreted, soluble Kex2; assay: calculated from kon (progress curves) and Ka
# Experimental: as §1
# T3 sequence (P09958 108-715 limits assumed): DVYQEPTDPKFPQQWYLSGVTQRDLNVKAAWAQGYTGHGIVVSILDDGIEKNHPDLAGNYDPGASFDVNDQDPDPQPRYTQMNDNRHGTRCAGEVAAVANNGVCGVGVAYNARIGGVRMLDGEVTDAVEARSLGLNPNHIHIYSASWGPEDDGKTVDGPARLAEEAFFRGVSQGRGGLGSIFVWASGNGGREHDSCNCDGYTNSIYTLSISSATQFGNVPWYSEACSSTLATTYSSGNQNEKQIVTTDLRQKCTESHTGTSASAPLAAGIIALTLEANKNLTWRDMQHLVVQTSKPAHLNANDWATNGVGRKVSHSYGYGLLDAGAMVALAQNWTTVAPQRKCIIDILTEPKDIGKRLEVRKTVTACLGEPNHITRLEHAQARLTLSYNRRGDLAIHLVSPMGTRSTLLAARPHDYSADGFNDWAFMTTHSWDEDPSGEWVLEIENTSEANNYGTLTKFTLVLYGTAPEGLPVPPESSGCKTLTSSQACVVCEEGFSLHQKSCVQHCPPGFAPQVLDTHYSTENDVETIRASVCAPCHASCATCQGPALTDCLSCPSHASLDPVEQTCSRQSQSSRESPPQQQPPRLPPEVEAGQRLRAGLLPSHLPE
binder,measurement,setting,value
"R4R1-eglin (designed binder, N-terminal Met removed; also called Tyr49-R4R1-; D33Y49) SMGSELKSFPEVVGKTVDQAREYFTLHYPQYDVYFLPEGSRVTRDLRYNRVRVFYNPGTNVVNHVPHVG",Ki,"secreted, soluble furin [1]",2.5 nM
same,Ki,"secreted, soluble Kex2 [2]",0.91 nM
same,Ki,"secreted, soluble furin [3]",2.5 nM
same,Ki,"secreted, soluble Kex2 [4]",0.91 nM
same,Ka,"secreted, soluble furin [5]",4e+08 M⁻¹
same,Ka,"secreted, soluble Kex2 [6]",1.1e+09 M⁻¹
same,Ka,human PC7 [7],7.7e+08 M⁻¹
same,% inhibition of enzyme in rapid protease inhibition assay,"secreted, soluble furin [8]",60%
same,% inhibition of enzyme in rapid protease inhibition assay,"secreted, soluble Kex2 [9]",60%
same,% inhibition of enzyme in rapid protease inhibition assay,human PC7 [10],70%
same,half-life (t1/2) of the complex,"secreted, soluble furin [11]",~1 h
same,half-life (t1/2) of the complex,"secreted, soluble Kex2 [12]",~1 h
same,koff,"secreted, soluble furin [13]",0.0003 s⁻¹
same,koff,"secreted, soluble Kex2 [14]",0.0002 s⁻¹
